System: FLAG-YAP
Test: In vitro protein pull-down assay
Format: binding
Conditions: recombinant GST-SOX9 20 μM and FLAG-YAP 20 μM, FLAG beads, overnight at 4 °C
Protocol: FLAG-YAP protein (20 μM) purified from SF9 was incubated with 20 μM GST-SOX9 protein (Abcam, ab131911), GST protein, or blank control in the presence of FLAG beads (Sigma-Aldrich, A2220) overnight at 4 °C. Following this, the beads were washed two times in binding and wash buffer (20 mM Tris [pH 8.0], 150 mM NaCl, 0.5% NP40, 0.5% TritonX-100, 1 mM DTT, and 10% glycerol), and one wash with high salt buffer (20 mM Tris [pH 8.0], 250 mM NaCl, 0.5% NP40, 0.5% TritonX-100, 1 mM DTT, and 10% glycerol). The slurry was boiled with SDS buffer and then subjected to immunoblot.

B1: SOX9: recombinant GST-SOX9 protein (Abcam, ab131911) (protein)
chain: MNLLDPFMKMTDEQEKGLSGAPSPTMSEDSAGSPCPSGSGSDTENTRPQENTFPKGEPDLKKESEEDKFPVCIREAVSQVLKGYDWTLVPMPVRVNGSSKNKPHVKRPMNAFMVWAQAARRKLADQYPHLHNAELSKTLGKLWRLLNESEKRPFVEEAERLRVQHKKDHPDYKYQPRRRKSVKNGQAEAEEATEQTHISPNAIFKALQADSPHSSSGMSEVHSPGEHSGQSQGPPTPPTTPKTDVQPGKADLKREGRPLPEGGRQPPIDFRDVDIGELSSDVISNIETFDVNEFDQYLPPNGHPGVPATHGQVTYTGSYGISSTAATPASAGHVWMSKQQAPPPPPQQPPQAPPAPQAPPQPQAAPPQQPAAPPQQPQAHTLTTLSSEPGQSQRTHIKTEQLSPSHYSEQQQHSPQQIAYSPFNLPHYSPSYPPITRSQYDYTDHQNSSSYYSHAAGQGTGLYSTFTYMNPAQRPMYTPIADTSGVPSIPQTHSPQHWEQPVYTQLTRP
  direct interaction with YAP (pull-down): demonstrated the direct interaction between SOX9 and YAP

Reference: publication PMC11039692, “SRY-Box transcription factor 9 triggers YAP nuclear entry via direct interaction in tumors” (Signal Transduction and Targeted Therapy, 2024)
